Paper PMC4933879
Positions count from the first letter of the chain named. In names and notes the source's numbering stands.

B1: DARPin D1 H118R (protein)
chain: MRGSHHHHHHGSDLGKKLLEAARAGQDDEVRILMANGADVNATDASGLTPLHLAATYGHLEIVEVLLKHGADVNAIDIMGSTPLHLAALIGHLEIVEVLLKHGADVNAVDTWGDTPLRLAAIMGHLEIVEVLLKHGADVNAQDKFGKTAFDISIDNGNEDLAEILQKLN
B2: DARPin D1 N158S (protein)
chain: B1 chain with R118H, N158S
B3: DARPin D1 I152T (protein)
chain: B1 chain with R118H, I152T
B4: DARPin D1 I152T; N158S (protein)
chain: B1 chain with R118H, I152T, N158S
B5: DARPin D1 I32V; N74S; I76S; I78L; H118R; I122V; E127K; V131A; F150Y; I152T; N158S (protein)
chain: B1 chain with I32V, N74S, I76S, I78L, I122V, E127K, V131A, F150Y, I152T, N158S
B6: DARPin D1 H118R; I152T; N158S (protein)
chain: B1 chain with I152T, N158S
B7: DARPin D1 F150Y (protein)
chain: B1 chain with R118H, F150Y
B8: DARPin D1 E127K (protein)
chain: B1 chain with R118H, E127K
B9: DARPin D1 I78L (protein)
chain: B1 chain with I78L, R118H
B10: DARPin D1 E127K; V131A (protein)
chain: B1 chain with R118H, E127K, V131A
B11: DARPin D1 I122V (protein)
chain: B1 chain with R118H, I122V
B12: DARPin D1 F150Y; I152T; N158S (protein)
chain: B1 chain with R118H, F150Y, I152T, N158S
B13: DARPin D1 N74S (protein)
chain: B1 chain with N74S, R118H
B14: DARPin D1 N74S; I76S; I78L (protein)
chain: B1 chain with N74S, I76S, I78L, R118H
B15: DARPin D1 I76S (protein)
chain: B1 chain with I76S, R118H
B16: DARPin D1 I32V (protein)
chain: B1 chain with I32V, R118H
B17: DARPin D1 H118R; I122V (protein)
chain: B1 chain with I122V
B18: DARPin D1 V131A (protein)
chain: B1 chain with R118H, V131A

biological target: T1, tubulin covalently linked to a biotinylated stathmin-like peptide; test: ELISA; settings: chain shown with the change; buffer incubation after binding; 2 nM biotinylated peptide-coupled tubulin for coating; parent: est. 0.082; read off a plot

Row | Binder | response
1 | B1 | 0.71 AU
2 | B2 | 0.15 AU
3 | B3 | 0.48 AU
4 | B4 | 0.61 AU
5 | B5 | 0.72 AU
6 | B6 | 0.75 AU

same assay, conditions: chain shown with the change; buffer incubation after binding; 10 nM biotinylated peptide-coupled tubulin for coating; parent: est. 0.32; read off a plot

Row | Binder | response
7 | B1 | 0.76 AU
8 | B2 | 0.59 AU
9 | B7 | 0.26 AU
10 | B3 | 0.79 AU
11 | B8 | 0.42 AU
12 | B9 | 0.4 AU
13 | B10 | 0.31 AU
14 | B11 | 0.22 AU
15 | B12 | 0.75 AU
16 | B13 | 0.28 AU
17 | B14 | 0.34 AU
18 | B5 | 0.74 AU
19 | B15 | 0.3 AU
20 | B16 | 0.31 AU
21 | B17 | 0.73 AU
22 | B18 | 0.24 AU

biological target: T1, tubulin covalently linked to a …; test: ELISA (off-rate estimation); settings: chain shown with the change; incubation with 100 nM soluble tubulin to prevent rebinding; 2 nM biotinylated peptide-coupled tubulin for coating; parent: est. 0.046; read off a plot

Row | Binder | response
23 | B1 | 0.45 AU
24 | B2 | 0.045 AU
25 | B3 | 0.075 AU
26 | B4 | 0.27 AU
27 | B5 | 0.38 AU
28 | B6 | 0.57 AU

same assay, conditions: chain shown with the change; incubation with 100 nM soluble tubulin to prevent rebinding; 10 nM biotinylated peptide-coupled tubulin for coating; parent: est. 0.11; read off a plot

Row | Binder | response
29 | B1 | 0.76 AU
30 | B2 | 0.14 AU
31 | B7 | 0.13 AU
32 | B3 | 0.44 AU
33 | B8 | 0.11 AU
34 | B9 | 0.13 AU
35 | B10 | 0.075 AU
36 | B11 | 0.12 AU
37 | B12 | 0.69 AU
38 | B13 | 0.18 AU
39 | B14 | 0.18 AU
40 | B5 | 0.74 AU
41 | B15 | 0.15 AU
42 | B16 | 0.11 AU
43 | B17 | 0.69 AU
44 | B18 | 0.1 AU
